Measurements taken from patent US20150329642A1 (Genmab, published 2015).
Residue numbers refer to the chain shown, from its start. Several values for one entry are separate records, joined by “and”; a condition that tells them apart may be missing. Equal entries are not always repeated. Each block holds one binder with its values, some of them ahead of it.

Columns and labels:
[1] = biological target: T1, human c-Met, membrane-bound on cells (human, UniProt P08581 25-1390); test: flow cytometry on A431 cells (PE goat anti-human IgG); third panel
T1 construct: whole, on cells; A431 cells carry on average 30,000 copies of c-Met per cell (Qifi); also called c-Met expressed on A431 cells; c-Met on A549 cells
Experimental: (§1) The binding of anti-c-Met antibodies and monovalent forms thereof (also termed “UniBody molecules” herein, see Example 5) to A431 cells expressing membrane-bound c-Met (purchased at ATCC, CRL-1555) was tested using flow cytometry (FACS Canto II, BD Biosciences). […] Binding of anti-c-Met antibodies and UniBody molecules was detected using a Phycoerythrin-conjugated goat-anti-human IgG antibody (Jackson). IgG1-5D5 was used as positive control antibody, and HuMab-KLH was used as isotype control antibody. EC₅₀ values were determined by means of non-linear regression (sigmoidal dose-response with variable slope) using GraphPad Prism V4.03 software (GraphPad Software, San Diego, Calif., USA).
(§2) Also maximum binding levels were unchanged between IgG1's and UniBody molecules. For antibodies 005, 006, 008, 035, 045 and 058, on the other hand, a more than 2-fold […] as well as a decrease in maximum binding level was observed when comparing IgG1 with their UniBody counterpart. This was most likely due to the […] (Kd) of these antibodies (see Example 14).

[2] = biological target: T1, human c-Met, membrane-bound on cells; test: flow cytometry on A431 cells (PE goat anti-human IgG); second panel
Experimental: as §1, §2

[3] = biological target: T1, human c-Met, membrane-bound on cells; test: flow cytometry on A431 cells (PE goat anti-human IgG); bottom panel
Experimental: as §1, §2

[4] = biological target: T1, human c-Met, membrane-bound on cells; test: flow cytometry on A431 cells (PE goat anti-human IgG); top panel
Experimental: as §1, §2

[5] = biological target: T1, human c-Met, membrane-bound on cells; test: flow cytometry on A431 cells (PE goat anti-human IgG); third panel; curve not saturated
Experimental: as §1, §2

[6] = biological target: T2, rhHGF R/Fc Chimera (R&D Systems; Cat.358MT/CF) (human, UniProt P08581 25-932); test: ELISA on coated rhHGF R/Fc Chimera
T2 construct: Bought reagent; Fc part of the bought chimera not given; not described
Experimental: c-Met binding properties of the mutants were tested in an ELISA. ELISA plate wells were coated overnight at 4° C. with rhHGF R/Fc Chimera (R&D Systems; Cat.358MT/CF) in PBS (1 μg/mL). Next, the wells were washed with PBST (PBS supplemented with 0.05% Tween-20 [Sigma-Aldrich, Zwijndrecht, The Netherlands]) and blocked for one hour at room temperature (RT) with PBSTC (PBST supplemented 2% [v/v] chicken serum [Gibco, Paisley, Scotland]). Subsequently, the wells were washed with PBST and incubated for one hour at RT with the anti-cMet antibodies and variants serially diluted in PBSTC (10 μg/mL in 4-fold dilutions). […] After washing, the reaction was visualized by a 15 min incubation with 2,2′-azino-bis(3-ethylbenzothiazoline-6-sulfonic acid) (ABTS: dilute one ABTS tablet in 50 mL ABTS buffer [Roche Diagnostics, Almere, The Netherlands]) at RT protected from light. The colorization was stopped by adding an equal volume of oxalic acid (Sigma-Aldrich, Zwijndrecht, The Netherlands). […] at 405 nm was measured on a microtiter plate reader (Biotek Instruments, Winooski, USA).

T1 sequence (P08581 25-1390): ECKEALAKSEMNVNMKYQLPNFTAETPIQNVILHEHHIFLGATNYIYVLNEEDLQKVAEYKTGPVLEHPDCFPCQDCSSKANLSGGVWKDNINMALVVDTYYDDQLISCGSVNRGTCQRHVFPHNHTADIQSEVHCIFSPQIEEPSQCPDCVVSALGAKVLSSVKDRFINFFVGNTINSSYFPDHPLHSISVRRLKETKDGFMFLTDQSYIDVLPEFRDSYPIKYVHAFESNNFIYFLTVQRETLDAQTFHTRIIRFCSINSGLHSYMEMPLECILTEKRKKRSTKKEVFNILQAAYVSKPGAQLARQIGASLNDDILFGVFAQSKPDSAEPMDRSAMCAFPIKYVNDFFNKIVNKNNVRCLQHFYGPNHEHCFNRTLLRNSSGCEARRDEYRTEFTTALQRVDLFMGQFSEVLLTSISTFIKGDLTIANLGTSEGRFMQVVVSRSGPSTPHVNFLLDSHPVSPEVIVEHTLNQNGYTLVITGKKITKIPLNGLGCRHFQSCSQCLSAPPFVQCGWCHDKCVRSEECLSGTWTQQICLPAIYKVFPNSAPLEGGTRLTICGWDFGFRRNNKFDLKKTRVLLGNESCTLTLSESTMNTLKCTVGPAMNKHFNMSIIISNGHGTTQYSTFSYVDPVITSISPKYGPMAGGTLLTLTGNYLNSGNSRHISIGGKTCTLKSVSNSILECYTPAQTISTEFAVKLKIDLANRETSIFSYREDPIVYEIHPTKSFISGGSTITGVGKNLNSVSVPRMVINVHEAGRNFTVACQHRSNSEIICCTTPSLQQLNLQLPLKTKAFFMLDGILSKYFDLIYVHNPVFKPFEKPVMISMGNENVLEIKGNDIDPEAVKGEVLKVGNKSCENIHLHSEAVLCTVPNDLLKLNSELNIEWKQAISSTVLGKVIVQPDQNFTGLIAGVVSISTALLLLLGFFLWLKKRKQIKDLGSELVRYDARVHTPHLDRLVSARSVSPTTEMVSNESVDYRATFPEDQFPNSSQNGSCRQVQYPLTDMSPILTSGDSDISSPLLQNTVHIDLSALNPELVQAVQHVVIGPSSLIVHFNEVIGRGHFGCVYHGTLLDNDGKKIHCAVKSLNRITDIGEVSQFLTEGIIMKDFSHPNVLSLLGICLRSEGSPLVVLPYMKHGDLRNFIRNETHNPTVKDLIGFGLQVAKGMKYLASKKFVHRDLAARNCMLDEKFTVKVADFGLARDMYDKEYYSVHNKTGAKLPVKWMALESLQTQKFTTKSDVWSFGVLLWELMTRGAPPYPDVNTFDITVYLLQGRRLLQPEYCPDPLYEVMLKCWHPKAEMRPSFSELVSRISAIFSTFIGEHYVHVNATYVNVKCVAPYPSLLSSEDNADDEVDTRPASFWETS
T2 sequence (P08581 25-932, change not shown): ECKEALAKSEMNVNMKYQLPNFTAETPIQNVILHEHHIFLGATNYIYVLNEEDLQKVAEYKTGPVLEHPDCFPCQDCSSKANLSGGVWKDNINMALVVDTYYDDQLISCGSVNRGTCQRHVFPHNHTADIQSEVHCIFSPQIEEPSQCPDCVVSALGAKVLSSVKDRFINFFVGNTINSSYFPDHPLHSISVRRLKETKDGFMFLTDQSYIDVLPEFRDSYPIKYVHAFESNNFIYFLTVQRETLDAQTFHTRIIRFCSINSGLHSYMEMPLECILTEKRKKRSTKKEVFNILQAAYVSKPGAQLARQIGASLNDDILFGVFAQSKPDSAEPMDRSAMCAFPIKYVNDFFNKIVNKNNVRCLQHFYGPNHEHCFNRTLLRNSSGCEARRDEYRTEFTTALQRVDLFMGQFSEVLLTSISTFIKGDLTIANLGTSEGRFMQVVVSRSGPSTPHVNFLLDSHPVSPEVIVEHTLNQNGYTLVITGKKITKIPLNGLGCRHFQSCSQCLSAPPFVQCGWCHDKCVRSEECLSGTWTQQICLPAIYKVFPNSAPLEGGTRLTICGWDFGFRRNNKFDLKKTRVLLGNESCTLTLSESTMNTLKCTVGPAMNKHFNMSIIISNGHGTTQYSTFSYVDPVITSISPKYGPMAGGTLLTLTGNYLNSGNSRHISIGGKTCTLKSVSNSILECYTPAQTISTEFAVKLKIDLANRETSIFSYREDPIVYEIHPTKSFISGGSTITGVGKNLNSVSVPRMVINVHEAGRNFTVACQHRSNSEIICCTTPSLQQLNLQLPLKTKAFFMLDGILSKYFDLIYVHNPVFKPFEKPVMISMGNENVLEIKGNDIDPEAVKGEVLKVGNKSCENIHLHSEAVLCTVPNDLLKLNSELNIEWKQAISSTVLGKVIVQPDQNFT

B2: anti-c-Met HuMab 005 (IgG1) (antibody, V domains shown)
VH: QVQLVQSGAEVKKPGSSVKVSCKASGGTFSSYGFGWVRQAPGQGLEWMGRISPILGIANYAQMFQGRVTITADKSTSTAYMELSSLRSEDTAVYYCARDVGYDWPDTFDIWGQGTMVIVSS
VL: DIQMTQSPSSLSASVGDRVTITCRASQGISSWLAWYQQKPEKAPKSLIYAASSLQSGVPSRFSGGGSGTDFTLTISSLQPEDFATYYCQQYNSFPPTFGQGTKVEIK
notes: also called TH1016-005; PC1016-005
- EC50 [2]: 1.56 nM

B4: IgG1-1016-022 (antibody, V domains shown)
VH: QVQLVESGGGVVQPGRSLRLSCAASGFTFSSYAMHWVRQAPGKGLEWVAVISYDGSNKYYADSVKGRFTISRDNSKNTLYLQMNSLRAEDTAVYYCARELLWFGELWGYFDLWGRGTLVTVSS
VL: B2 VL with L11V, Q38H, E41G, S46L, G65S, Q90E, Y91A, N92S, P95T, P96W
notes: also called TH1016-022; PC1016-022
- EC50 [2]: 1.1 nM

B5: anti-c-Met HuMab 006 (IgG1) (antibody, V domains shown)
VH: B2 VH with Y32F, F34I, S52F, I57T, S84T, W104S, P105A, T107A, I118T
VL: B2 VL with G65S, F94Y
notes: also called TH1016-006; PC1016-006
- EC50 [4]: 2.32 nM
- EC50 [2]: 1.92 nM

B6: anti-c-Met HuMab 008 (IgG1) (antibody, V domains shown)
VH: EVQLVQSGAEVKKPGESLKISCKGSGYSFTSYWIGWVRQMPGKGLEWMGIIYPGDSETRYSPSFQGQVTISADKSISTAYLQWSSLKASDTAMYYCARQEITGEFDYWGQGTLVTVSS
VL: AIQLTQSPSSLSASVGDRVTITCRASQGISSALAWYQQKPGKAPKLLIYDASSLESGVPSRFSGSGSGTDFTLTISSLQPEDFATYYCQQFNSYPRTFGQGTKVEIK
notes: also called TH1016-008; PC1016-008
- EC50 [2]: 0.554 nM

B7: anti-c-Met HuMab 035 (IgG1) (antibody, V domains shown)
VH: B6 VH with E57D, S84N
VL: AIQLTQSPSSLSASVGDRVTITCRASQGISSALAWYQQKPGKAPKLLIYDASSLESGVPSRFSGSGSGTDFTLTISSLQPEDFATYYCQQFNSYPMYTFGQGTKLEIK
notes: also called P1016-035; TH1016-035-D09
- EC50 [1]: 1.78 nM

B8: IgG1-024 (antibody, V domains shown)
VH: EVQLLESGGGLVQPGGSLRLSCVASGFTFSSYAMSWVRQAPGKGLEWVSAISGSSGGSTYYVDSVKGRFTISRANSKNTLYLQMNSLRAEDTAVYYCAKDLDRGWMGYFGYWGQGTLVTVSS
VL: DIQMTQSPSSVSASVGDRVTITCRASQGISSWLAWYQHKPGKAPKLLIYAASSLQSGVPSRFSGSGSGTDFTLTISSLQPEDFATYYCQQANSFPTFGQGTRLEIK
notes: also called TH1016-024; PC1016-024
- EC50 [5]: ~3.19 nM

B9: IgG1-1016-069 (antibody, V domains shown)
VH: QVQLVQSGAEVKKPGASVKVSCETSGYTFTSYGISWVRQAPGHGLEWMGWISAYNGYTNYAQKLQGRVTMTTDTSTSTAYMELRSLRSDDTAVYYCARDLRGTNYFDYWGQGTLVTVSS
VL: DIQMTQSPSSVSASVGDRVTITCRASQGISNWLAWFQHKPGKAPKLLIYAASSLLSGVPSRFSGSGSGTDFTLTISSLQPEDFATYYCQQANSFPITFGQGTRLEIK
notes: also called clone 069; TH1016-069
- EC50 [6]: 0.0495 µg/mL and 0.0454 µg/mL
- EC50 [3]: 0.547 nM

More lines, now with the values ahead:

- EC50 [1]: 0.692 nM
B1: anti-c-Met HuMab 045 (IgG1) (antibody, V domains shown)
VH: EVQLLESGGGLVQPGGSLRLSCAASGFTFSSYAMSWVRQAPGKGLEWVSVISGSGGITYYADSVKGRFTISRDNSKNTLYLQMNSLRAEDTAVYYCARDRGWGSDYWGQGTLVTVSS
VL: EIVLTQSPATLSLSPGERATLSCRASQSVSSYLAWYQQKPGQAPRLLIYDASNRATGIPARFSGSGSGTDFTLTISSLEPEDFAVYYCQQRSNWPFTFGPGTKVDIK
notes: also called TH1016-045; PC1016-045

- EC50 [3]: 0.9 nM
B3: anti-c-Met HuMab 098 (IgG1) (antibody, V domains shown)
VH: QVQLVQSGAEVKKPGASVKVSCKASGYTFTNFGISWVRQAPGQGLEWMGWISAFNGHTDYSQKVQGRVTMTTDTSTSTAYMELRSLRSDDTAVFYCARSHYYGSGSPFDYWGQGTLVTVSS
VL: B2 VL with S31N, G65S, Q89H, N92K, F94Y, P96W
notes: also called TH1016-098; PC1016-098

- EC50 [3]: 0.679 nM
B10: anti-c-Met HuMab 181 (IgG1) (antibody, V domains shown)
VH: B9 VH with E23K, T24A, H43Q, A53T, N104A
VL: B9 VL with F36Y
notes: also called TH1016-181; PC1016-181

- EC50 [3]: 1.03 nM
B11: anti-c-Met HuMab 101 (IgG1) (antibody, V domains shown)
VH: QVQLVQSGGEVKKPGASVKVSCKASGYTFTRHGITWVRQAPGQGLEWMGWISADNGNTNYAQKFQDRVTMTTDTSTSTAYMELRSLRSDDTAVYFCARVFRYFDWLLPYFDYWGQGTLVTVST
VL: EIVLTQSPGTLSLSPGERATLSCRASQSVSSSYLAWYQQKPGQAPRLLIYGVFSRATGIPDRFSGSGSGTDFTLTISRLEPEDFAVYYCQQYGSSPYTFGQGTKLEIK
